For experiment [1], the target named is mouse IL-13 (purchased from sino biological) (mouse) (UniProt P20109). Briefly: ELISA, mouse IL-13; antibody at 0.11 nM.
The target is the same in experiment [2]. The experiment can be described thus: ELISA, mouse IL-13; antibody at 0.53 nM.
The target is the same in experiment [3]. The experiment can be described thus: ELISA, mouse IL-13; antibody at 2.67 nM. (In general: An ELISA detects its analyte on a solid surface through an enzyme-linked reagent.)
For experiment [4] the target is unchanged. The experiment can be described thus: ELISA, mouse IL-13; antibody at 0.000 nM.
Experiment [5] shares this target. The experiment can be described thus: ELISA, mouse IL-13; antibody at 0.001 nM.
Experiment [6] shares this target. Briefly: ELISA, mouse IL-13; antibody at 0.004 nM.
Experiment [7] shares this target. Briefly: ELISA, mouse IL-13; antibody at 0.021 nM.
For experiment [8], the target named is cynomolgus IL-13 (purchased from sino biological) (cynomolgus) (UniProt Q0PW92). The experiment can be described thus: ELISA, cynomolgus IL-13; antibody at 2.67 nM.
Experiment [9] has the same target. Briefly: ELISA, cynomolgus IL-13; antibody at 0.53 nM.
Experiment [10] shares this target. The experiment can be described thus: ELISA, cynomolgus IL-13; antibody at 0.004 nM.
Experiment [11] shares this target. The experiment can be described thus: ELISA, cynomolgus IL-13; antibody at 0.021 nM.
Experiment [12] has as its target T1, mouse IL-13 (purchased from sino biological) (mouse, UniProt P20109 19-131).
T1 chain: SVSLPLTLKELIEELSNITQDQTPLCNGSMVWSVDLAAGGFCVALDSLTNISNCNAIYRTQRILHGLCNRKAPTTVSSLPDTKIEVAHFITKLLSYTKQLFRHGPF
Briefly: ELISA, mouse IL-13; antibody at 13.33 nM.

Experiment [13] addresses cynomolgus IL-13 (purchased from sino biological) (cynomolgus) (UniProt Q0PW92). Briefly: ELISA: cynomolgus IL-13 on the plate, antibody titrated, HRP secondary antibody, OD450.

Results on four molecules are retold here after patent publication US20190309059A1 (SHANGHAI PHARMAEXPLORER, published 2019).

cynomolgus IL-13 (purchased from sino biological) (cynomolgus), sequence (Q0PW92 entry or part of it): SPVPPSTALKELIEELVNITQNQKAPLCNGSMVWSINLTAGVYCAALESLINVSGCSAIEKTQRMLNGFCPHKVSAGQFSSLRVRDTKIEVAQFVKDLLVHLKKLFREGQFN

With IgG control (mouse IgG) (antibody), the OD450 nm came out at 0.08 in experiment [1]; 0.08 in experiment [2]; 0.08 in experiment [3]; 0.1 in experiment [4]; 0.07 in experiment [5]; 0.07 in [6]. The OD450 nm in experiment [7] came to 0.07; in experiment [8] it was 0.1; in experiment [9], 0.08; in [10] it was 0.061; in experiment [11], 0.068.

B1: 28A2E11 (lead antibody, mouse hybridoma) (antibody, V domains shown)
VH: EVQLQQSGAELVKPGASVKLSCTASGFNIKDYYMHWVKQRTEQGLEWIGRIDPEDGETKYAPKFHDKATLTADTSSNTAYLQFSSLASEDTAVYYCTRYDYYGPFAYWGQGTLVTVSA
VL: QAVVTQESVLTTSPGETVTLTCRSSTGAVTTSNYANWVQEKPDHLFTGLIGGTNNRAPGVPARFSGSLIGDKAALTITGAQTEDEAIYFCALWYINHFIFGSGTKVTVL
notes: Mouse monoclonal antibody purified from hybridoma supernatant on Protein G
For the molecule B1, the OD450 nm in experiment [12] came to 0.08.

B2: 29D9H8 (lead antibody, mouse hybridoma) (antibody, V domains shown)
VH: QVQLQQSGAELVRPGASVTLSCKASGYTFTDYEMHWVKQTPVHGLEWIGGIDPETGGTASNQKFKGKAILTADKSSSTAYMELRSLTSEDSAVYYCTSGDYFGGGPFAYWGQGTLVTVSA
VL: DIKMTQSPSSMYASLGERVTITCKASQDINSYLSWFQQKPGKSPKTLIYRANRLVDGVPSRFSGSGSGQDYSLTISSLDYEDMGIYYCLQYDEFPYTFGGGTKLEIK
notes: as for B1
Molecule B2 returned an OD450 nm in experiment [12] of 0.09. The EC50 (read off the curve) (as a rule, the concentration giving half of the maximal effect) in experiment [13] was found to be 0.1 nM.

B3: c29D9H8 (mouse-human chimeric IL-13 antibody) (antibody, V domains shown)
VH: B2 VH
VL: B2 VL
B3 came in with an EC50 (read off the curve) in experiment [13] of 0.2 nM. This lies in the sub-nanomolar range.
